Results as given in article PMC3245869 (Molecular cell, 2008).

Target: T1, Rnr2-Rnr4 heterodimer (ribonucleotide reductase small subunit) (S. cerevisiae, UniProt P09938 1-399; P49723 1-345)
T1 sequence (looked up) 1: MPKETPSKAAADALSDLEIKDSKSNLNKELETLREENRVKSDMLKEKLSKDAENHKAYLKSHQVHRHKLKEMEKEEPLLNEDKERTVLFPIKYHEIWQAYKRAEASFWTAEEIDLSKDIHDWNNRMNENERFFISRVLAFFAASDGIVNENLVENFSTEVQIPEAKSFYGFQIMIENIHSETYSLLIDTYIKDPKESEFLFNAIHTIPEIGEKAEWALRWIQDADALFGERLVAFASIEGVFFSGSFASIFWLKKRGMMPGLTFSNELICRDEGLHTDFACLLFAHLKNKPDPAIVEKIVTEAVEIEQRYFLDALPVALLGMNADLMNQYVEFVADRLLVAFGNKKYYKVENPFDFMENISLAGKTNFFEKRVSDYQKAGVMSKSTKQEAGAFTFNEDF
T1 sequence (looked up) 2: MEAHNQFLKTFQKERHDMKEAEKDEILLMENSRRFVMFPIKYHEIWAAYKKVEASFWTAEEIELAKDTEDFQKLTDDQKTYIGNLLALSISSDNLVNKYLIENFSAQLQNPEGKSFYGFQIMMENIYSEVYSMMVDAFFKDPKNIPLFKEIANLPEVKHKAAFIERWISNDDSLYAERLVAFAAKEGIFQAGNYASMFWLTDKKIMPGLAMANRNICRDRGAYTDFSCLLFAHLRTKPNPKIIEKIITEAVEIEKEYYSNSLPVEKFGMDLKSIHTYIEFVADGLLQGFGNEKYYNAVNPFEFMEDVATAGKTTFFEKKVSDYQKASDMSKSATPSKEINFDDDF
Assay: SPR

- Kd: 0.6 µM
B1: Recombinant wild-type Dif1 protein (His6-Dif1) (natural protein, S. cerevisiae, UniProt O13577 1-133, looked up)
chain: MDAQLEWASSLVPKRQLQQQQQQQEQQQQQQQDFHKDQLMTVGMRIRQRVDQGYASRTPSTSDASLQPGVIRDYSSVIVPQFTRSPLPTANSLPPMLINQRTMSTEASSLEKWDVAEPAAEHETMVNGSKRRL
